{"source": "the DeepSol protein solubility set"}
{"test": "soluble on expression in E. coli; label from the status in PepcDB or PDB records"}
{"sequence": "KASEEGIGGRKTCEYYPCHFEGQNCTFCFCPFYPCENEKTGGKWIQSSRGGRVWSCVDCHLVHKKEIAQKILDCLMHEGDTDELVKVAWKEVMEPIL", "soluble on expression in E. coli": "not soluble"}
{"sequence": "KCPRCGKSVYAAEKVMGGGKPWHKTCFRCAICGKSLESTNVTDKDGELYCKVCYAKNF", "soluble on expression in E. coli": "soluble"}
{"sequence": "KERPEISLPSDFEHTIHVGFDAVTGEFTGMPEQWARLLQTSNITKSEQKKNPQAVLDVLEFYNSKKTSNSQKYMSFTDKS", "soluble on expression in E. coli": "soluble"}
{"sequence": "KGKKLAVIAVAEHEFNQSENNGPGSAPLDPVDNYYQIREAQAKADIVIVTIHGGNEHFHYPRPGLRKLCKHYIDLGVNAVICHHPHVPGAYEIYNGRPIVYSLGNFVFDTLSMVHEWDVGYMAKLKFNEVD", "soluble on expression in E. coli": "not soluble"}
{"sequence": "KGLDKWGIYVPESAAQSVKDAVFEAGAGAIGDYSQCSFEWQGTGQFLPHHNAQPVVGHPGQLERTEELRVEFVAPARLRTTLIDAIRAAHPYEEPAFDVVSMQSTQDLETAEGLGRVGTLPEPMRFGDFVQQVADALPETSWGIRAAGDPEQMVHTVAVSSGSGDSFLDAVAALGVDVYVTSDLRHHPADESRRAQGPLLIDTAHWASEFPWTYQVQELLAQEFAQLDVEVATLRTDPWNISAHPQLR", "soluble on expression in E. coli": "not soluble"}
{"sequence": "KIRDELRAERTFIDQALDSLADIFYVIDSAGTVQRCNEQFATLAGYADEKISDLDALSLFPEEEREGVSEAIEEALTTGQSTIEAEFRTAAGKRVPHEFTADRLTDQDGDLIGLVGTGRDIS", "soluble on expression in E. coli": "not soluble"}
{"sequence": "KKMREEGVHEGCMEQIYRMFSQRLYKEDGSAAEVDDMNRLRLDDWELREDIQQHCRELWPQITTENLKELTDYVEYKEEFLKLFGFGVEGVDYEADVNPAVETDFIQI", "soluble on expression in E. coli": "not soluble"}
{"sequence": "KKVYLIHGWGANRHAFDDLMPRLPATWPVSAVDLPGHGDAPFAQPFDIEAAADGIAAQIDTSADILGWSLGGLVALYLAARHPDKVRSLCLTASFARLTAAEDYPEGLAAPALGKMVGAFRTDYAKHIKQFLQLQLLHTPDAAEIIGRILPDLARCGTPQALQEALDAAERADARHLLDKIDVPVLLVFGGKDAITPLRMGEYLHRHLKGSRLVVMEKAAHAPFLSHAEAFAALCRDFVEG", "soluble on expression in E. coli": "not soluble"}
{"sequence": "KLKPFNDEKTAKIAEEVQQFYESNATISLNEYLENVGELGYELYLTDGAEKSTYYGGAFRKKDLPDKTIKQVLDGETYHGIDSFDTGIFITGFFDNDVRNTIGVPVQADGKQLALFIRQDPEKQFGELRIF", "soluble on expression in E. coli": "soluble"}
{"sequence": "KLNRAIGVIDSGVGGLTVAKELIRQLPKERIIYLGDTARCPYGPRSREEVRQFTWEMTEHLLDLNIKMLVIACNTATAVVLEEMQKQLPIPVVGVIHPGSRTALKVTNTYHVGIIGTIGTVKSGAYEEALKSINNRVMVESLACPPFVELVESGNFESEMAYEVVRETLQPLKNTDIDTLILGCTHYPILGPVIKQVMGDKVQLISSGDETAREVSTILYHSKMLNEGEEQSDHLFLTTGKIGLFKEIASKWFGQPIENVKHIHLEK", "soluble on expression in E. coli": "soluble"}
{"sequence": "KLSNGMNGSEAAVHEVPEYTGPLGTSGEEPAPTVEKPEYTGPLGTSGEEPAPTVEKPEYTGPLGTAGEEAAPTVEKPEFTGGVNGTEPAVHEIAEYKGSDSLVTLTTKEDYTYKAPLAQQALPETGNKESDLLASLGLTAFFLGLFTLGKKREQ", "soluble on expression in E. coli": "not soluble"}
{"sequence": "KLVFLHGLGQDKTAWNDVIAALPHYDCLALDLFDEGKMPENFTTLVEQVATELKGIEEDFVLIGLSLGAMLALALSDYTFPHIKGFIVSGAQHDLKRSFLYKLQLLGLQLLPKSFFKKQGVKKDSFLAFSKSLSTLDLRETIRQIDIPALILCGQKDKPNLLPARKIAELIPNARLSVIKKGGHLLNTKMPIVFAKEITDFLK", "soluble on expression in E. coli": "not soluble"}
{"sequence": "KMERKNVWHHRKKEEIEAFSKEYMEFMSKAKTERMTVKEIKRILDESGFVPLEDFAGDPMNMTVYAVNRGKAIAAFRVVDDLKRGLNLVVAHIDSPRLDFKPNPLIEDEQIALFKTHYYGGIKKYHWLSIPLEIHGVLFKNDGTEIEIHIGDKPEDPVFTIPDLLPHLDKEDAKISEKFKGENLMLIAGTIPLSGEEKEAVKTNVLKILNEMYGITEEDFVSGEIEVVPAFSPREVGMDRSLIGAYGQDDRICAYTALRALLSANPEKSIGVIFFDKEEIGSDGNTGAKARFYLKALRQILKMQGAKDSEFVLDEVLENTSVISGDVCAAVNPPYKDVHDLHNAPKLGYGVALVKYTGARGKYSTNDAHAEFVARVRKVLNEQGVIWQVATLGKVDQGGGGTIAKFFAERGSDVIDMGPALLGMHSPFEISSKADLFETYVAYRSLMEKL", "soluble on expression in E. coli": "soluble"}
{"sequence": "KPGAMYRNSSKPAYTRREYISGIPGKKIAQFDMGNNGAGPTYPAQVELVVEKPVQIRHNALEAARVAANRYVQNSGAAANYKFRIRKFPFHVIRENKAAAAAAAAAAADGMRAPFGKPVGTAARVHGANHIFIAWVNPDPNVEEAWRRAKMKVTPTINIDSSPAGNA", "soluble on expression in E. coli": "soluble"}
{"sequence": "KPGKQIPTLEDAKKELKIPDQDKEQNGNIARQRHVVNAYAVGRIADEEGLFRFQLDDKGKWGNPQLLVKKVRHMKVRYIYVSGCPEDDDAGKEETFKYTDKFDSAQNAVTPAGVEVLLSSGTDTKIAASSDNHIYAYRIDATIRGGNVCANRTL", "soluble on expression in E. coli": "not soluble"}
{"sequence": "KQKRARLIYNPTSGQEIMKKNVAEVLDILESFGYETSAFQTTPRADSAKNEAARASQAGFDLVIAAGGDGTINEVVSGIAPLKRRPKVAIIPTGTTNDFARALKIPRGNPVEATKLIGKNQTIHMDIGRAYND", "soluble on expression in E. coli": "not soluble"}
{"sequence": "KQQLTEDGDSFLHLAIIHEEKALTMEVIRQVKGDLAFLNFQNNLQQTPLHLAVITNQPEIAEALLGAGCDPELRDFRGNTPLHLACEQGCLASVGVLTQSCTTPHLHSILKATNYNGHTCLHLASIHGYLGIVELLVSLGADVNAQEPCNGRTALHLAVDLQNPDLVSLLLKCGADVNRVTYQGYSPYQLTWGRPSTRIQQQLGQLTLENLQMLPESEDEESYDTESEFTEFTEDE", "soluble on expression in E. coli": "soluble"}
{"sequence": "KRKERLSARLGDILSQLYLSSATLKRFEQDGRPAEDLALVHWGLQDSLKQAEIAIDEFLANFPNKVIGRTLRVLIMPFGRVRKAPSDKLDSKVARILQTPSATRSRIGRGQYLEPTEHNPAGKIELALSVILQAEPVFDKVCKAQGKRRPFLRLDMIAQEGLEQGVITQEEAELLREAEQHRLDTINVDDFEPELLAAKPLYPQMDSVA", "soluble on expression in E. coli": "not soluble"}
{"sequence": "KRRAALNLRIFATEGAMMLGVTLSRLEGRSFIERSPGRRPFFKPGPLSPRLSRAFVNLSRLQRGGSFADPFCGTGGFAIEACLLGASRIACGDLDWAMVRGGPLNLSRYCPPGIWFYSAWNAAKLPLSSNSVDSIATDPPYGRSTTTGRMGYLSLTRAFLNTAVEVLRSEGWIVYAGPTRMSPETLAEDAGLRVVKVIEMFVHGSLTRSIVVARFG", "soluble on expression in E. coli": "not soluble"}
{"sequence": "KSGKEAGSQIMKFEVQDASPTIATELNLVTGEQVYYIKRLRFIEDNAAQLEETWMSVARFPDLTVSHMQKSKFSYIENECGIKIIGTFETFSPTFPTPEIASILRISPRDPILKIQTQAVDSNSIPLDYSLLYSNIFEFQVKYFFPR", "soluble on expression in E. coli": "not soluble"}
{"sequence": "KVSKGLILYPGAKVEIESYAPLARKIAESGYEVVIVKMPLNLAILGTNKAQKVMDSYNNIEHWVIGGHSLGGVAASNFARDNKLIEGVVFLASYPMGDELKELGKKVISIWGSKDGVVNFKSLVESKQKLPDDTTYVEIEGGNHAQFGDYGKQKGDNDAIISQEKQLNITANSIIKFLKNIS", "soluble on expression in E. coli": "not soluble"}
{"sequence": "LAQEKNYDLPEGVMVYVIEGPFFFGAVETFQSALANTHTDPKVLIIRMRWVPFIDVTGLQAMEEIILNLQKRGVRVLLSEANPLVDAKLRKMGIVQLIGEQNYYKEFSQALDVCRINDSDRKSQPPFEVAKPLASVTQ", "soluble on expression in E. coli": "not soluble"}
{"sequence": "LFNYKEGDSFFIRGPYGNGFDVSLYEGREIVVVAGGSALAPVRGIVEYFYNNKEKCEKFKLIVGFKSPKDILFADDLKRWSKKLDILVTVDGAEEGYSGNVGLVTKYIPELDMKDINNTSIVVVGPPMMMKFTVEEFLKRDLDEKNIWV", "soluble on expression in E. coli": "not soluble"}
{"sequence": "LINILEQAKQKNTAQGSESTTNKIIGYTTTANVNVDNQNIFSVSKLNNEQFQRKIIVNATEETLDQSQTLQSNESIVLPMPGKYKSTDKNK", "soluble on expression in E. coli": "soluble"}
{"sequence": "LISPDVDIEEITTRILEEAMGLTGSEQGFVATIDPLSRTLVIHTFSSMMDCLWQGGEEGRRILFPPGQDGSYPTLWGHSLNTKCPFYTNDPAGHPSAVGVPHGHIPLRHFLSVPVMLGDEVVAQISLANPGRDYTERDLEAIGRVAKFFALAIQRMRAEESIR", "soluble on expression in E. coli": "not soluble"}
{"sequence": "LKELHILTRDGKINQDTRRKLKQVYHLYQFIEPLMADVLEKKGAMTLADHGAGKSYLGFILYDLFLKEKAAGHVYGVETRQELVDKSRELAERLGFERMGFLNLTVEQSITSTALPEQVDIITALHACNTATDDAIRFALAKDAQYIVLVPCCQAEVASVLRQKKNETFGKTPLSELWRHPIHTRE", "soluble on expression in E. coli": "not soluble"}
{"sequence": "LKISTKGRYGLEAIVDLAIHSSEGRVSLKSIAERCGMSEAYILQIFLILRRAGIVESIRGAQGGYVLARDPSQITVGEILTVLEGPLAPVPCIAEKTKRSKSSCERYENCTARSFWEKIMNTLNDVANSITVEDLVKCYNSTVSQNTELEYYI", "soluble on expression in E. coli": "soluble"}
{"sequence": "LKSADHGGRLAYDNGRYGDGDGLTQNGGVNGGLRFGESGFLNLSAQFREQARTIRAGIDQRTGHYGNPSIGDPSLHRQALAYNAGVALDDNVELYSFATYTHRSVSSAQIYQLPSLAPRLYPNGFTPRITSDEDDYSLTLGARGGELFGAWDWDLSSTYGADRPEIGMDHSINLALYGETGDSPRSFDLARYKATQWTNNLDLRRDFDLAWLPAPLNFSWGLEQRRELYEVEAGDPWSYYNGGSKALPGQAPATAGQWSRDVLGAYLDLSIALDERWQLETAARYEHYSDFGSTTNGKLASRYRFSPEVSARASLSSGFRAPSLAQENYTS", "soluble on expression in E. coli": "not soluble"}
{"sequence": "LPEIPIAAPDLLGHGRSPWAAPWTIDANVSALAALLDNQGDGPVVVVGHSFGGAVAMHLAAARPDQVAALVLLDPAVALDGSRVREVVDAMLASPDYLDPAEARAEKATGAWADVDPPVLDAELDEHLVALPNGRYGWRISLPAMVCYWSELARDIVLPPVGTATTLVRAVRASPAYVSDQLLAALDKRLGADFELLDFDCGHMVPQAKPTEVAAVIRSRLGPR", "soluble on expression in E. coli": "soluble"}
{"sequence": "LSKLTVVETPLEVNLPAGDNRVAVRVTPVSLNAGSLKSDAGARFGGGTSGAAGSQSDKGVGLAVAFERPEEGLKADIGTTPMGFKYTTVAGGASVDRPLGNNPDLRYGLNVSRRPVTDSVTSFAGSTDERSGLSWGGVTANGGRGQLSYDDQTIGGYGYGSWHKLVGNNVKSNTRGEVGGGVYWYLRNAEDSKLTAGLSLMGMSYDNDQSYFTYGHGGYFSPQSFYAIGVPVMWAQRTERFSYQVKSSVGVQHFKQDGAEFFPDDSTLQAASAQRYTGQSKTGIGYNLSAAGEYKLDSSLFMGASLGLDNARDYRQFSGALYLRYMFEDI", "soluble on expression in E. coli": "not soluble"}
{"sequence": "LTEHLIDSIRTNRTENKIHLKPEPFNIGPYTKLSINKRDNYGTIKIKWFDRVPFTEYKSFLDSSIHNLNTRQITNLIIDLRWNIGGPREYPIYLLSKILNQPFRYCDSLITTKFTFEEKIAFDSTKVFVPMDNGFYKVVKNARGLGQQNPSNVTFTGNIYLLVDGQSNSSSAQVASLIYQNRRGTIIGEEPGGLFEGGTGEHHYYLTLTNSRIKVQIPRYRIVLHVDRSKFHGHGVKPDYEVKPDITDMIQGKDPVMEFTIGLIKK", "soluble on expression in E. coli": "not soluble"}
